The results in this text go back to US20230121197A1, “ANTIBODIES SPECIFICALLY BINDING THE CARBOXYMETHYLATED CATALYTIC SUBUNIT OF PROTEIN PHOSPHATASE 2A” (Medizinische Universität Wien, priority 2020, published 2023).

In experiment [1] the target is T1, PP2Ac C-terminal peptide meL309, ac-HVTRRTPDYFL-CH3 (α-carboxymethylated) (human, SMILES …).
T1 construct: also called Y307-meL309; mePP2Ac
T1 peptide: Ac-HVTRRTPDYFL-OMe
Briefly: ELISA, peptide coated at 2 µg/ml, supernatant 1:50. The procedure: Nunc Medisorp 96-well ELISA flat-bottom plates were coated with peptides L309 (ac-[…]) (SEQ ID NO:18), meL309 (ac-[…]-CH₃) (SEQ ID NO:18) or amL309 (ac-[…]-NH₂) (SEQ ID NO:18) at 2 μg/ml in TBS at 4° C. over-night. After washing once with TBS, the wells were incubated with 2% BSA in TBS for 1 h at RT. After washing once with TBS, the wells were incubated with single clone hybridoma cell culture supernatant clone 7C10-C5 1:50 (˜1 μg/ml) in 1% BSA/TBS for 1 h at RT. After washing twice with TBS, wells were incubated with anti-mouse HRP-coupled secondary antibody for 1 h at RT, followed by washing 3× in PBS. Bound antibodies were detected by colorimetric reaction with 3,3′,5,5′-Tetramethylbenzidine as substrate, and absorbance was measured at 450 nm. Values were normalized to meL309 which was set to 1. Average and standard deviation of N=8 experiments are shown. Statistical significance was assessed using ANOVA followed by Tukey's HSD as a post-hoc test. P values are indicated with *, **, ***, which correspond to values of <0.05, <0.01, and <0.001.
Specifically, flat-bottom Nunc-Immuno Medisorp 96-well ELISA plates (Thermo; 467320) were coated o/n at 4° C. with 50 μl of either a peptide of the sequence ac-[…]-OH (L309; unmodified) (SEQ ID NO:18) at a concentration of 2 μg/ml, a peptide of the sequence ac-[…]-CH₃ (meL309; methylated) (SEQ ID NO:18) at a concentration of 2 μg/ml in TBS (137 mM NaCl (AppliChem, #131659, 2.7 mM KCl (AppliChem, #131494), 24.8 mM Tris (AppliChem, #A1086), pH 7.4 with HCl) or a peptide of the sequence ac-[…]-NH₂ (amL309; amidated) (SEQ ID NO:18) at a concentration of 2 μg/ml in TBS. Of note, the “ac-” in the peptides described here and in other Examples refers to an acetylated N-terminus. Said acetylation neutralizes the positive charge at the N-terminus, and the free charged N-terminus is thereby removed.

For the next experiment, the system named is PP6. Briefly: Summary of cross-reactivities of C-terminal PP2Ac antibodies (Table 4), PP6. The settings on record: antibodies screened for binding methylated PP2Ac. The text has this: Examples of antibodies with a preference for non-methylated PP2Ac are mouse monoclonal antibody 4B7 (Yu (2001), Mol Biol Cell 12, 185-199), mouse monoclonal antibody 1D7 generated by the Ogris lab but also the rabbit monoclonal E155 antibody from Abeam and the mouse monoclonal F-8 from SCBT that were thought to be specific for pTyr^307.

Experiment [2] has as its target T2, non-carboxymethylated PP2Ac (ac-[…]-OH) (Homo sapiens, UniProt P67775).
T2 construct: The following 11-mer peptides corresponding to the carboxymethylated or non-methylated carboxy-terminus of PP2A and PP4 catalytic subunits were used as antigens
Briefly: Surface plasmon resonance (Biacore T200), non-carboxymethylated PP2Ac peptide. Format: binding. The settings on record: SPR. The procedure: The differential affinity of anti-carboxymethylated PP2Ac antibodies, 7C10-C5 and 2A10, to carboxymethylated PP2A catalytic subunit versus noncarboxymethylated PP2A catalytic subunit was determined by surface plasmon resonance (SPR) on a Biacore T200 (GE Healthcare) at the Core Facility Biomolecular & Cellular Analysis (University of Natural Resources and Life Sciences Vienna BOKU). The affinity of 7C10-C5 for carboxymethylated and noncarboxymethylated catalytic subunit of PP4 (PP4c), a PP2A-related phosphatase, was also determined. […] The KD of the binding of 7C10-C5 (or 2A10) to non-carboxymethylated PP2Ac or PP4c could not be determined because at the highest analyte sample concentration (5000 nM) only very weak binding signals were detected indicating KD values of at least >5000 nM or higher. […]
SPR experiments were performed with the BiacoreT200 instrument (Cytiva). […] The sensorgrams obtained were analyzed with BiacoreT200 Evaluation Software (version 3.1). […]
Background: In SPR one partner is held on a chip, and binding of the other changes the refractive index at the surface.

B1: 7C10-C5 monoclonal antibody (antibody, V domains shown)
VH: DVQLQESGPGLVKPSQSLSLTCSVTGYSITSGYYWNWIRQFPGNKLEWMGYISYDGSNNYNPSLKNRISITRDTSKNQFFLKLNSVTTEDTATYYCAGRFAYWGQGTLVTVSA
VL: DVLMTQTPLSLPVSLGDQASISCRSSQSIVHSNGNTYLEWYLQKPGQSPKLLIYKVSNRFSGVPDRFSGSGSGTDFTLKINRVEAEDLGVYYCFQGSHVPWTFGGGTKLEIK
notes: Used as hybridoma culture supernatant (ELISA, Western blot, IHC) or at 50 µg/mL (SPR); also called 7C10 X63; clone 7C10-C5
B1: in experiment [1], the “fold higher ELISA signal intensity than with the amidated peptide (amL309)” value worked out at 6 fold, the “fold higher ELISA signal intensity than with the non-methylated peptide (L309)” value worked out at 26 fold and the “fold higher ELISA signal intensity than with the α-carboxymethylated PP4c peptide (meL307)” value was ≥ 10 fold.

B2: 7C10-C5: α-carboxymethylation specific mouse monoclonal IgG1 antibody from single clone hybridoma 7C10-C5 (DSM ACC3350) (antibody)
heavy: MYRMQLLSCIALSLALVTNSDVQLQESGPGLVKPSQSLSLTCSVTGYSITSGYYWNWIRQFPGNKLEWMGYISYDGSNNYNPSLKNRISITRDTSKNQFFLKLNSVTTEDTATYYCAGRFAYWGQGTLVTVSAAKTTAPSVYPLAPVCGDTTGSSVTLGCLVKGYFPEPVTLTWNSGSLSSGVHTFPAVLQSDLYTLSSSVTVTSSTWPSQSITCNVAHPASSTKVDKKIEPRGPTIKPCPPCKCPAPNLLGGPSVFIFPPKIKDVLMISLSPIVTCVVVDVSEDDPDVQISWFVNNVEVHTAQTQTHREDYNSTLRVVSALPIQHQDWMSGKEFKCKVNNKDLPAPIERTISKPKGSVRAPQVYVLPPPEEEMTKKQVTLTCMVTDFMPEDIYVEWTNNGKTELNYKNTEPVLDSDGSYFMYSKLRVEKKNWVERNSYSCSVVHEGLHNHHTTKSFSRTPGK
light: MDMRVPAQLLGLLLLWLSGARCDVLMTQTPLSLPVSLGDQASISCRSSQSIVHSNGNTYLEWYLQKPGQSPKLLIYKVSNRFSGVPDRFSGSGSGTDFTLKINRVEAEDLGVYYCFQGSHVPWTFGGGTKLEIKADAAPTVSIFPPSSEQLTSGGASVVCFLNNFYPKDINVKWKIDGSERQNGVLNSWTDQDSKDSTYSMSSTLTLTKDEYERHNSYTCEATHKTSTSPIVKSFNRNEC
modifications: Amino acid sequence of the recombinant 7C10-C5 heavy chain; Amino acid sequence of the recombinant 7C10-C5 light chain
As to B2, the “PP6 meLeu^305” value in the experiment on PP6 is recorded as “— (— <15%)”. Moreover, in experiment [2], the “binding to carboxymethylated PP2Ac stronger than to non-carboxymethylated PP2Ac” value is “at least 400 fold” and the “binding to non-carboxymethylated PP2Ac” value is given as “does not bind to non-carboxymethylated PP2Ac to a measureable extent”.
